Results: patent publication US20110172153A1 (GENERAL HOSPITAL, published 2011)
Square brackets hold non-standard residues; d marks the D form. Ends that are not written are not given here. hArg = N=C(N)NCCCC[C@H](N)C(=O)O; Nle = CCCC[C@H](N)C(=O)O; Aib = CC(C)(N)C(=O)O

Columns and labels:
[1] = molecular target: T1, rat parathyroid hormone receptor (PTHR) (rat, UniProt P25961 27-591); experiment: near-equilibrium radioligand binding, ROS17/2.8 membranes
T1 construct: Endogenous in ROS17/2.8 cells (membranes or intact cells); also called rat PTHR; rat PIR
T1 sequence: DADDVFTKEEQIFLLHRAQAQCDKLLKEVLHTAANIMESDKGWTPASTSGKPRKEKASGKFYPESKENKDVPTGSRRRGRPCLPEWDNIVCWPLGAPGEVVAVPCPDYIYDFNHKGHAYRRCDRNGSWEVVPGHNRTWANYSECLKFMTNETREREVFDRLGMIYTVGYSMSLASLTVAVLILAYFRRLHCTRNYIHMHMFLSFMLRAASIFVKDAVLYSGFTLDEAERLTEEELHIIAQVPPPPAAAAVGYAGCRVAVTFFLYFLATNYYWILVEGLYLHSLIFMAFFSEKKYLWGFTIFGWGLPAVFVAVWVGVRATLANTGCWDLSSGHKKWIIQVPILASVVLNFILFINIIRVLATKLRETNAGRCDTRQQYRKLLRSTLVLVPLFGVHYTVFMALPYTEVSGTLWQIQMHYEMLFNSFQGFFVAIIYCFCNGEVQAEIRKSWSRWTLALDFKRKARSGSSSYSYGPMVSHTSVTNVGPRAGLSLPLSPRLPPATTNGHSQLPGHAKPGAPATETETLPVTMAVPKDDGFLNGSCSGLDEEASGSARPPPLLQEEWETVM

[2] = molecular target: PTHR-CFPIC3/YFPCT (human); experiment: cell-based or functional assay
[3] = molecular target: T2, human parathyroid hormone receptor (PTHR) (human, UniProt Q03431 27-593); experiment: ratio of R0 IC50 to RG IC50, hPTHR
T2 construct: Assayed in membranes of HKRK-B7 cells or of transiently transfected COS-7 cells, or on intact HKRK-B7/HKRK-B64/COS-7 cells; RG = co-transfected with negative-dominant Galpha-s; R0 = receptor alone plus GTPgammaS; also called hPTHR; human PTH receptor
T2 sequence: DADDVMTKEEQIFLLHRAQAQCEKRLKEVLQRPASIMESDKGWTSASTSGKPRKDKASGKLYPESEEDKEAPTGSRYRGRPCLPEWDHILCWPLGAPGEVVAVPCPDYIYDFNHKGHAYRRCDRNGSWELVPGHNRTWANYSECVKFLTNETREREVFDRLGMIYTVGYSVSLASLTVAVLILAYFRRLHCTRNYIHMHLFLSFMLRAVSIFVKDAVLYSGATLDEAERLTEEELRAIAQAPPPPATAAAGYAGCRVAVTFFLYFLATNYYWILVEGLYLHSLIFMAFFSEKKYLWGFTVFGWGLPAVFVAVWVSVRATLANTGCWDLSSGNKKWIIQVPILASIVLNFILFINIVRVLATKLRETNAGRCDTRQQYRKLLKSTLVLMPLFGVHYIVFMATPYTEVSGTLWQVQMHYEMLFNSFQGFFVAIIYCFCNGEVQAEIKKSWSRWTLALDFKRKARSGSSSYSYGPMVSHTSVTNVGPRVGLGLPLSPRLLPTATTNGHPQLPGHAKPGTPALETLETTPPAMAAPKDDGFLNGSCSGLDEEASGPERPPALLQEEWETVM

[4] = molecular target: T1, rat parathyroid hormone receptor (PTHR); experiment: competition radioligand binding, rat PIR R0
[5] = molecular target: T1, rat parathyroid hormone receptor (PTHR); experiment: competition radioligand binding, rat PIR RG
[6] = molecular target: T2, human parathyroid hormone receptor …; experiment: competition radioligand binding, human PIR R0
Description: (§1) Binding Studies. Binding studies were performed using cell membranes as described (Dean et al., Mol Endocrinol 20(4):931-43 (2006)). […] Reactions contained a total membrane protein concentration of 20 to 100 μg/mL, and a total radioactivity concentration of approximately 150,000 cpm/ml. Unlabeled peptide ligands and/or GTPγS (Sigma-Aldrich Inc. St. Louis, Mo.) were added to the reactions as indicated. At the end of the reaction, bound and free radioligand were separated by vacuum filtration using a 96-well vacuum filter plate and vacuum filter apparatus (Multi-Screen system with Durapore HV, […] filters; Millipore Corp., Milford, Mass.); the air-dried filters were then detached from the plate and counted for gamma radioactivity using a gamma counter.
(§2) To assess the capacities of various unlabeled peptide ligands to bind to the G protein-uncoupled and G protein-coupled PTHR conformations (R⁰ and RG, respectively), membranes were prepared from transiently transfected COS-7 cells and the following assay conditions.

[7] = molecular target: T2, human parathyroid hormone receptor …; experiment: competition radioligand binding, human PIR RG
Description: as §1, §2

[8] = molecular target: T2, human parathyroid hormone receptor …; experiment: ratio of R0 IC50 to RG IC50, human PTH1 receptor
[9] = molecular target: T2, human parathyroid hormone receptor …; experiment: competition radioligand binding, hPTHR R0 conformation
Description: as §1, §2

[10] = molecular target: T2, human parathyroid hormone receptor …; experiment: competition radioligand binding, hPTHR RG conformation
Description: as §1, §2

[11] = molecular target: T2, human parathyroid hormone receptor …; experiment: competition radioligand binding, human PTH1 receptor R0
Description: as §1, §2

[12] = molecular target: T2, human parathyroid hormone receptor …; experiment: competition radioligand binding, human PTH1 receptor RG
Description: as §1, §2

[13] = molecular target: T2, human parathyroid hormone receptor …; experiment: cell-based or functional assay

[Aib]V[Aib]EIQL[Nle]HQ[hArg]AKWY-NH2 (also: 125I label, site not given here, Radioligand; tracer of the RG assay) [^125I-[Aib^1,3,M]PTH(1-15)NH2]: binds [1].

For AVSEIQLLHDKGKSIQDLRRRFFLHHLIAEIHTAEY-NH2 [[Ile^5,Tyr^36]hPTHrP(1-36)NH2], the “t1/2 of the FRET response” value [2] was 0.5 to 0.7 s.

AVSEIQLLHDKGKSIQDLRRRFFLHHLIAEIHTAEY-NH2 (also: 125I label, site not given here, Radioligand) [^125I-[Ile^5,Tyr^36]PTHrP(1-36)NH2]: binds [1].

With AVSEHQLLHDKGKSIQDERRRAFLLKLIAE-NH2 (also called EALK-PTHrP(1-30)) [E18,A22,L25,K26-PTHrP(1-30)NH] the R0/RG selectivity [3] was 11200, the IC50 [4] was 76.3 nM and the IC50 [5] was 0.21 nM. The IC50 [6] was 945 nM, the IC50 [7] was 0.08 nM and the R0/RG ratio [8] was 11800. The IC50 [9] was 945 nM, the IC50 [10] was 0.08 nM and the IC50 [11] was 945 nM. The IC50 [12] was 0.08 nM.

B1: ^125I-[Nle^8,21,Tyr^34]rPTH(1-34)NH2 (peptide)
peptide: AVSEIQLXHNLGKHLASVERXQWLRKKLQDVHNY
modifications: 125I label (oxidative chloramine-T procedure); Nle at 8 and 21; C-terminal amide
notes: Radioligand; tracer of the R0 assay
B1: binds [1].

With SVSEIQLMHNLGKHLNSMERVEWLRKKLQDVHNF [hPTH(1-34)] the “t1/2 of the reduction in FRET signal” value [2] was 0.7 s.

B2: A18,22,L25,K26-PTHrP(1-28)NH (peptide)
peptide: AVSEHQLLHDKGKSIQDARRRAFLLKLI-NH2
modifications: not fully specified
notes: also called [Ala^18,22,Leu^25,Lys^26]-PTHrP(1-28); AALK-PTHrP(1-28)
With B2 the “cAMP in HKRK-B7 cells, EC50” value [13] was 0.52 nM, the “cAMP in HKRK-B7 cells, Max” value [13] was 56.4 pm/well and the R0/RG selectivity [3] was 6970. It also gave an IC50 [4] of 34.9 nM, an IC50 [5] of 0.16 nM and an IC50 [6] of 310 nM. The IC50 [7] was 0.04 nM, the IC50 [9] was 310 nM and the IC50 [10] was 0.04 nM.

In the case of AVSEHQLLHDKGKSIQDERRRAFLHHKIAEI-NH2 (Name as printed (K27)) [E18,A22,K27-PTHrP(1-31)NH], the IC50 [4] is reported as 54.8 nM and the IC50 [5] is reported as 0.23 nM.

B3: [Aib^1,3,Gln^10,Har^11,Ala^12,Trp^14]rPTH(1-14)NH2 (peptide)
peptide: [Aib]V[Aib]EIQLMHQ[hArg]AKW-NH2
modifications: N-terminus assumed
SMILES: CC[C@H](C)[C@H](NC(=O)[C@H](CCC(=O)O)NC(=O)C(C)(C)NC(=O)[C@@H](NC(=O)C(C)(C)N)C(C)C)C(=O)N[C@@H](CCC(N)=O)C(=O)N[C@@H](CC(C)C)C(=O)N[C@@H](CCSC)C(=O)N[C@@H](Cc1c[nH]cn1)C(=O)N[C@@H](CCC(N)=O)C(=O)N[C@@H](CCCCNC(=N)N)C(=O)N[C@@H](C)C(=O)N[C@@H](CCCCN)C(=O)N[C@@H](Cc1c[nH]c2ccccc12)C(N)=O
With B3 the “t1/2 of the FRET response” value [2] was 0.5 s.
